The experiment has as its target T1, ALCAM/MEMD/CD166 (human, UniProt Q13740 28-583).
T1 construct: whole, on cells; Endogenous antigen on Du-145 prostate cancer cells (FACS) and in lysates of surface-biotinylated Du-145 cells (IP and Western blot)
T1 sequence (looked up): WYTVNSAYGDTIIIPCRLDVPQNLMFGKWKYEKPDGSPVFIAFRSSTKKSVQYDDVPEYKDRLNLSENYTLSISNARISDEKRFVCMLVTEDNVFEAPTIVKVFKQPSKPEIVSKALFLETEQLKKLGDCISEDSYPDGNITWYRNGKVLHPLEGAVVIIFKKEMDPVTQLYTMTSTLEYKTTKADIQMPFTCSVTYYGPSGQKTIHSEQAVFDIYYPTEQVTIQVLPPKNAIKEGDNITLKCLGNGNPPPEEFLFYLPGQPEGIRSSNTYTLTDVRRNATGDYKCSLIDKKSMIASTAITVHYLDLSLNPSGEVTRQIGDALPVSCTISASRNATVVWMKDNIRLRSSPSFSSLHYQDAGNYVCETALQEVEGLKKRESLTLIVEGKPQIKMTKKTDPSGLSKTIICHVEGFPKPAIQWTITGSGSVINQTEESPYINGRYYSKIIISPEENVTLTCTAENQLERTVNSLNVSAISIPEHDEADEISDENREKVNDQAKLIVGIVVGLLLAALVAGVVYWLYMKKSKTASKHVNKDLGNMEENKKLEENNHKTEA
The experiment is described as follows: FACS on Du-145 cells, equilibrium binding at 4 C overnight, apparent KD by curve fitting of MFI. The procedure:
Monodispersed DU-145 cells were incubated with varying concentrations of IgG1s at 4° C. overnight to allow equilibrium binding. After washing, bound human IgG1 s were detected by R-phycoerythrin-conjugated goat anti-human secondary antibody and analyzed by FACS. Mean fluorescence intensity (MFI) values were plotted and the KD was determined by curve fitting using GraphPad (GraphPad Software, San Diego, Calif.).

B1: anti-ALCAM IgG1 (585II41.1, also known as H3) (antibody, V domains shown)
VH: QVQLVESGGGLVQPGGSLRLSCAASGFTFSSYAMSWVRQAPGKGLEWVSAISGSGGSTYYADSVKGRFTISRDNSKDTLYLQMNSLRAEDTAVYYCASRSLLDYWGQGTLVTVSS
VL: NFMLTQDPAVSVALGQTVRITCQGDSLRSYYASWYQQKPGQAPLLVIYGKNNRPSGIPDRFSGSSSGNTASLTITGAQAEDEADYYCNSRDSSGNPVFGGGTKVTVL
notes: also called H3 IgG; H3 IgG1
Take B1: the Kd came to 4.4 pM.

For the origin of these results see patent publication US20170233488A1 (University of California, published 2017).
